Laboratory results published in patent publication US20070003546A1.

Target: FcγRIIIa on human PBMCs expressing heterozygous V158/F158 FcγRIIIa (human) (UniProt P08637)
Assay: cell-based or functional assay

| ADCC EC50 (DELFIA EuTDA, DoHH-2 target cells) | Substance |
| --- | --- |
| 3 ng/mL | alemtuzumab S239D/I332E (antibody) |
| 4 ng/mL | alemtuzumab V264I/I332E (antibody) |

Target: extracellular region of human V158 FcγRIIIa fused with glutathione S-Transferase (GST) (human) (UniProt P08637)
Sequence (P08637 17-208 F176V): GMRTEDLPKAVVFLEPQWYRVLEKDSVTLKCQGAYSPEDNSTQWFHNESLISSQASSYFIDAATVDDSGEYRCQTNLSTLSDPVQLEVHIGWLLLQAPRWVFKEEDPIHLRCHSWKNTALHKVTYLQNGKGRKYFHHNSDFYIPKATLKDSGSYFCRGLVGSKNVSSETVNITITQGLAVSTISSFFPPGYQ
Assay: AlphaScreen competition

| FcγRIIIa Fold | Substance |
| --- | --- |
| 0.56 fold | trastuzumab N276Y (antibody) |
| 1.43 fold | trastuzumab K326I (antibody) |
| 1.09 fold | trastuzumab K274L (antibody) |
| 1.17 fold | trastuzumab S324V (antibody) |
| 0.41 fold | trastuzumab N276S (antibody) |
| 1.87 fold | trastuzumab P230A/E233D/I332E (antibody) |
| 1.88 fold | trastuzumab K326T (antibody) |
| 0.98 fold | trastuzumab S324Y (antibody) |
| 8.7 fold | trastuzumab E272Y (antibody) |
| 0.87 fold | trastuzumab N276E (antibody) |
| 28 fold | trastuzumab S239D/A330Y/I332E/V240I (antibody) |
| 0.41 fold | trastuzumab Y278W (antibody) |
| 2.58 fold | trastuzumab T335R (antibody) |
| 0.85 fold | trastuzumab E233D (antibody) |
| 0.9 fold | trastuzumab Y278E (antibody) |
| 0.66 fold | trastuzumab N276R (antibody) |
| 1.01 fold | trastuzumab V302I (antibody) |
| 22.4 fold | trastuzumab S239D/A330Y/I332E/L234I (antibody) |
| 0.83 fold | trastuzumab V323I (antibody) |
| 1.09 fold | trastuzumab P230A (antibody) |
| 64.1 fold | trastuzumab S239D/A330Y/I332E/K326E (antibody) |

| FcγRIIIa Fold | Substance |
| --- | --- |
| 0.07 fold | trastuzumab L234I/L235D (antibody) |
| 17.7 fold | trastuzumab S239D/A330Y/I332E/V264T (antibody) |
| 1.72 fold | trastuzumab V240I/V266I (antibody) |
| 1.41 fold | trastuzumab K274T (antibody) |
| 1.56 fold | trastuzumab T335Y (antibody) |
| 0.92 fold | trastuzumab P230A/E233D (antibody) |
| 59.1 fold | trastuzumab S239D/I332E/A330I (antibody) |
| 6.11 fold | trastuzumab K274E (antibody) |
| 0.75 fold | trastuzumab E333H (antibody) |
| 2.79 fold | trastuzumab T335D (antibody) |
| 0.78 fold | trastuzumab E333T (antibody) |
| 0.79 fold | trastuzumab V273I (antibody) |
| 1.06 fold | trastuzumab K274Y (antibody) |
| 0.71 fold | trastuzumab S324R (antibody) |
| 0.67 fold | trastuzumab E283R (antibody) |
| 1.41 fold | trastuzumab K274R (antibody) |
| 1.87 fold | trastuzumab Y278T (antibody) |
| 1.06 fold | trastuzumab E318R (antibody) |
| 1.11 fold | trastuzumab F275W (antibody) |
| 7.04 fold | trastuzumab S239D/A330Y/I332E/L235D (antibody) |
| 0.27 fold | alemtuzumab A298H (antibody) |

Target: His-tagged V158 FcγRIIIa (human) (UniProt P08637)
Sequence (P08637 17-208 F176V limits assumed): as the sequence (P08637 17-208 F176V) above
Assay: SPR, receptor immobilized

| Kd | Substance |
| --- | --- |
| 52 nM | alemtuzumab S298A (antibody) |
| 68 nM | WT alemtuzumab (antibody) |
| 39 nM | alemtuzumab S298A/E333A/K334A (antibody) |
| 64 nM | alemtuzumab V264I (antibody) |
| 17 nM | alemtuzumab V264I/I332E (antibody) |
| 31 nM | alemtuzumab I332E (antibody) |
